From the DeepSol protein solubility set

Assay: soluble on expression in E. coli; label from the status in PepcDB or PDB records

Row | Sequence | soluble on expression in E. coli
1 | MMTNPKVIILGGRFGGLQTAYELKRYLKGKIDIKLIERNRYIYFRPALPHVAIGLENPDDLRIDISEALSAKGIEYIQGTVTRIDPAKNTVEYNKEGAGPSKEKYDYLVIALGSHLATELITGFEKFGSSVCEADLALSMWNKLNAFKGGNITLGSAKFIQDNKNRPTNNPDAYAPLLESACEGPVYEMSIMLYDYFKAKGMLDKVKMTVYSPGKYLSDLSETNRATVAAMYKGMDIDIVDNFVLKEVTEKEVISEDGKRLPSDLSFILPPYMGQQMVKDAGLGDEAGFVLTDTNMKSVKYDNVYAVGDINALIVPKMAALAVKSARIAAANIANNLGNKVPIEVYDPKIVCIADDPYGKYAVAIVDSTAYGGNISEAVPSAANHLKKSLFTRYFLWSKGDLAMDKYLTSWLEHHHHHH | not soluble
2 | MMTQQELEKYLWGAATTLRGTIDAGDYKQYIFPLMFFKRICDVYDEEFENALAESDGDLEYAAFAENHHFQVPKGAHWNDVRETTTNIGLALQNAMRAIEKANPDTLEGIFGDASWTNKERLSDAMLTNLIEHYSEQTLNLKNVPDDKLGNAYEYLIKEFADDSGHTAAEFYTNRTVVKLMTMIMAPQPGESVYDPTCGSGGLLLNCALHLKDEGKEYRTLKLYGQEINLLTSAIARMNMFMHGIEEFDIVRGNTLSNPGLLENDELKKFNVILANPPYSIKSWDRKAFESDPYGRNVWGTPPQGCADYAFQQHIQKSLDLGNGRSISLWPHGILFRDAETAMRRKMIEQDQVECVIGLGPNLFYNSPMEACLLITKTNKIESKKDKILFINAVKEVRQDKNIGYLDQVHIDKIFNAYNKFENEDSFAVLVDKQEVLDKKANMAINLYIRPDSLVSSEEACFATAYQEWQQSSGDLKQSMEKLFKELV | not soluble
3 | MMTYDRNRNAITTGSRVMISGTGHTGIIKAIESEGLDAGQIRRGKTVIVEGCEGKFAPVELIRLGMN | not soluble
4 | MMVTFGEPGVYSSYSNPLPSTDTWEDCLEYCLGLSTCVAVYNNNCQMFEIGQISTATSTSETKIAFKFLADNATCPIQEPTSLQGHYFTNTTYQPYTVSYSAPTWTFANSTQLECPTNYALFVRDLGPWCMKVIQHYACCNKTIAATMCNSYGAQLSGLDSTAEYDFMLAGSWPIFKNVTTNKIGSTQYYATGVWVDGARTLACMGNTTYPCNTTQAFSFTDPTLSSPPGGYLWLPGRPDGGDAPADGIVLNLYTTELYGMEDTPSSEPVSGVYCWMGYLCGAVPT | not soluble
5 | MNALTPLSARLERSDGHALVTLARSRGAVRLRDLAQRGSAKAFLPRVEGDVPEVVFLNTSGGLTGGDRLSYRLEVGEGCRATATTQTAERAYAAGAGAARVEVLHEVGRDGWLDWLPQETILFEGAALERETQISLAPGAGCLMVESVVLGRAAMGETLSRLAFRDRRSILRGGKPVVVEPLALDDRALAAAGGAAMLGGARALATLAMVGPGAEDALGPARAALGEAGVEAAASAFDGKLVLRLLAADGWPLRRQVARLLTVLRGRALPRVWQVLEHHHHHH | not soluble
6 | MNASSEFTLQFESHAVRVQVDEAGTPWFNANDICTAVELLNPCAALAQHVGARNVSKRKIIDTIGRTQRANYLNEPGVLTLLIGSTKEAAKRLRRWLISEALPAAAVQKAGQHSVPQHHAPSISTPFQPTEDHTMNAITPFQFESHAVRTVVDDHGEVWFVGKDVADVLGYTNHNKALGDHCKGVPKRYPLQTPGGIQEIRIISEPDMLRLIVSSKLPAAERFERWVTSEVLPTIHKTGNRPALDHSTHSANAITPFQFESKDVRIQLDEASAPWFNANDVCSILEFGNPRQAIESHVDVEDVQKLDATDNLGRTRQTNHINESGLYALIMGSTKPAAKRFKRWVTSEVLPTLRKTGTYSTPGALPTLPGPTQDRIAALLLIGQYISTVPGVKPGIAAAATLACIKSNTNLTTEEIRRALPALRDPLCMLNATQLGKQLHCSAKAVNQLLASRGLQFRNERDDWELTEAGRVWGEAIPYSRNGHSSYQILWNPTVVDSLKVAA | soluble
7 | MNDEQQNSNQSENTKKPFFQSLFGRFFQGELKNREELVEVIRDSEQNDLIDQNTREMIEGVMEIAELRVRDIMIPRSQIIFIEDQQDLNTCLNTIIESAHSRFPVIADADDRDNIVGILHAKDLLKFLREDAEVFDLSSLLRPVVIVPESKRVDRMLKDFRSERFHMAIVVDEFGAVSGLVTIEDILEQIVGDIEDEFDEEEIADIRQLSRHTYAVRALTDIDDFNAQFNTDFDDEEVDTIGGLIMQTFGYLPKRGEEIILKNLQFKVTSADSRRLIQLRVTVPDEHLAEMNNVDEKSELEHHHHHH | not soluble
8 | MNDGDETLTAGAQGRQFGPLGTALVIIPTYNEAENIKSIVGRVRASVPEAHVLVADDNSPDGTGKLADELAVEDDQVHVLHRKGKEGLGAAYLAGFRWGLDNGYGVLVEMDADGSHRPEELPRLLTALKGADLVLGSRWVPGGRVVNWPKSREFISRGGSLYSRLALDLPQRDITGGYRAFRRETLEGLGLDEVASQGYCFQVDLARRTVKAGYHVVEVPITFVEREFGDSKMSRDILVEALWRVTTWGVGERVGRITGRGPKSSLEHHHHHH | not soluble
9 | MNDGDVSRQIQQMVRFIRQEAEEKANEISVSAEEEFNIEKLQLVEAEKKKIRQDYEKKEKQADVRKKIDYSMQLNASRIKVLQAQDDIVNAMKDQAAKDLLNVSRDEYAYKQLLKDLIVQCLLRLKEPSVLLRCREEDLGLVEAVLDDAKEEYAGKAKVHAPEVAVDTKIFLPPPPKSNDPHGLHCSGGVVLASRDGKIVCENTLDARLDVAFRMKLPVIRKSLFGQVTA | soluble
10 | MNDKTTRGRASKVDLLPPNIKSTLTMMLRDKQYSQAEILEEINNIIADSGLDESMQLSKTGLNRFASKMERFGKKIREAREVAEVWTKQLVEAPQSDIGKLLMEAVKTMAFDLTLNADEAVANDPKFLNQLALIANRIEQAQSISEERERKVRKEVAQQAADTAEKVISQAGLSADTVAQIKQQILGIA | not soluble
11 | MNDLEKKFYELPELPYPYDALEPHISREQLTIHHQKHHQAYVDGANALLRKLDEARESDTDVDIKAALKELSFHVGGYVLHLFFWGNMGPADECGGEPSGKLAEYIEKDFGSFERFRKEFSQAAISAEGSGWAVLTYCQRTDRLFIMQVEKHNVNVIPHFRILLVLDVWEHAYYIDYRNVRPDYVEAFWNIVNWKEVEKRFEDIL | soluble
12 | MNEDMEFFNRFSHMYLHGFKNLSDMFAEPATEHGITLDEFYILYDIAEAKGKIRLMDIAESHGVTRSAISRLIGRLLRKDYLYQEAEDHDRRNKVLKLTPEGARIEHEVFTELIQRNREWRQSFSLAKQYQTLNLVEEFMDKFVNEDASKQTKKATYADTDLKRAEA | not soluble
13 | MNEEVRELERLVPAAATGDKTALQRIISIVYPQVLRYARTRLSGGRHPTPEDVAQEICLAVATSIAKFVDQGKPFMAFVYGIASNKVADAHRLYSRDLSNPTDEVPETEIDNDTPESFALLAAGSNRVQQLLDLLGDKPREILTLRVFVGLSAEETAEIVGSTPGAVRVAQHRALATLRKAIEQETGE | not soluble
14 | MNELLQDRVPPQNIEAEQAVLGSIFLDADVLIEAMEYVEPKDFYRRSHQLIFQTMMTLSDRNEAIDVVTIKDRLEQENLLEDVGGLSYLSDLALAVPTAANVIYYAKIVEQKSLLRNLIQTATEIVTKGFEQGEDVESILDDAERSILEVSEKRNRSGFLSISDVLNTTIANIDQLYQNDEEITGLPTGYQALDKMTAGLQAEELIILAARPAVGKTAFALNIAQNVGTKTDKAVAIFSLEMGAESLVNRMLCAEGSIEASHLRTGQLSEEEWQNLIIAMGSLSRANIYIDDTPGIKITEIRAKCRKLAQEKGNLGLILIDYLQLIEGTGKENRQQEVSDISRQLKKLAKELKVPVIALSQLSRGVEQRQDKRPVLSDIRESGSIEQDADIVAFLYRDDYYDRGEGEDGDHEPPEVDNVVEVIIEKNRSGARGTVELLFIKEYNKFSSLSPRTEF | not soluble
15 | MNEQIPHDKSLDNSLTLLKEGYLFIKNRTERYNSDLFQARLLGKNFICMTGAEAAKVFYDTDRFQRQNALPKRVQKSLFGVNAIQGMDGSAHIHRKMLFLSLMTPPHQKRLAELMTEEWKAAVTRWEKADEVVLFEEAKEILCRVACYWAGVPLKETEVKERADDFIDMVDAFGAVGPRHWKGRRARPRAEEWIEVMIEDARAGLLKTTSGTALHEMAFHTQEDGSQLDSRMAAIELINVLRPIVAISYFLVFSALALHEHPKYKEWLRSGNSREREMFVQEVRRYYPFGPFLGALVKKDFVWNNCEFKKGTSVLLDLYGTNHDPRLWDHPDEFRPERFAEREENLFDMIPQGGGHAEKGHRCPGEGITIEVMKASLDFLVHQIEYDVPEQSLHYSLARMPSLPESGFVMSGIRRKS | soluble
16 | MNESIYTTPQSSKTPKSKSARYSSPYQVIDLNNESQEDLKTRLLEAENIIQDLRSERDALHESLVDKAGLNESVIIERSNKVSTQETRIYRRDVTLLEDDLKQKESQIRILQNRCLRLETEKQKMQDTISGYQEDLKENEIRIENLNSRLHKLEDELSAKTHEIFSIGEELKNKTMKLNEKNSQFQTKLAEISSENRNLERKVQKFREELIVKDQRSLEVHQDQENTQKVLKEVKQLSDRLDYLTPKRKDVSRIKERDDFLQFSAKIIEETMSELKLKNARLERELSEKEELVKVTKEELQELQKTVTQAMGDSEQATKYLHAENMKLTRQKADIRCDLLEARRNLKGFDEKREELEKQRDEALEDVRRITELKKNVEIELRSLKLLAEEREEQIDELKSRVAGYEVLRRDHEAVKNELAKAEEKLNKMGAHLVMADKQSSHFKTLKETAEGSRRRAIEQCNEMVARIRGLEASLENQRKVEQELEMVKAENVRQAKKIEFMKEEIQETHLDYREELSKLAKGGGSHEADSQRDSELRSAKKTIQEVKADNKKLQQILEEVRQNQSKVLEENVKLRKGMAEAIEKIEEFKRNWHSSREAGERLQLEAKENEEKVLKVEEELQEKRLEVLEKEELVNYLQSQINTKQTKQPKLSRRSTLMSTISEVDTSTYVREVEEVRALEEQREELQAYLAEKRKMADLQKSRSTANTTTLITSTTATEVSKSACELSYPPATMRHDIPHKWLEFRHYSVLSMKCSLCFVGITFFTKANKCSHCDVRVHASCAPRVNNTCGIPAQCATYYQDAQAVGGIGRMNGWLRVYRDDLPESTWTSLWAMMDSNHVKFYRDAGADNLENPYFTIDLNKEQWILRTGQEVAIPGDVMRNVLTIKLQTRSVHIVAPTPKSAERWAACLQNAQTRRMMKNSKPSSIAEYSCLLTLSLPNNLKIFKAHTIEDWILFATQTGLFFTSISQPRNPTRIAGPSSVTSLEVMSEINCVAMITNSNRQLALIPLDSLTLAMQSTHPSIRAEVLPEFGHVHTIRYHQQDGQRFLLVSDDTQLHIRKYNSTRDVFAHFAKLVVPEPVSFIESTPAGFIFASDTFYYVPLDHQSPSDVSARKLMPPRRSDYPVSAHAITANEILLAYQNHGIFVNLYGEQSRNQIIEWEKMPIEFAYTSPLLYIVHDDSIEIVQISKSSKETVLAEREVIACVNAHIVQSDGVLISVSSKDITEVHRFSATCRGTGTKRRGISPFNTLKRSKN | not soluble
17 | MNFENDDIIHAPTTSSLILEERHDSELFRVYALILDGITDQVLLPGKKLTESELCRQMVCSRNTVRGALSLLAHDKIVDLQPNRGAFVHVPDLKEMQDVFNARIEMETMILNILADLPDLETRLKPLYAMIRREEEASGRGDRVGWNRLSNAFHVELARLVGNDVLFDIMNTLCARSSLIVAVAGVHREEKHAINTHTHSEHREILDLLLAGRRNRVVKILRRHLGNCMERLEKTLED | not soluble
